This is an account of results in patent publication US20030108992A1.

One assay deals with Fas 1-210:YFP (human) (UniProt P25445). The experiment in a line: CFP dequenching after YFP photobleaching, fluorescence microscope.
For another assay, the target named is p60 TNFR (endogenous) (UniProt P19438). Kind of assay: cell-based or functional assay.
Assay [1] addresses p60 55-211 (UniProt P19438). Kind of assay: flow cytometry of transfected cells; normalized against HA staining. In general terms: Flow cytometry measures light scatter and fluorescence of single cells or particles in a stream.
Assay [2] concerns the target p60ΔCD-HA (UniProt P19438). The assay is described as above.
In assay [3] the target is p60ΔCD-HA DT49/50AA (UniProt P19438). Described as above.
The target in assay [4] is p60ΔCD-HA E57A (UniProt P19438). The assay is described as above.
For assay [5], the target named is p60ΔCD-HA K19E (UniProt P19438). The description is as above.
Assay [6] concerns the target p60ΔCD-HA K32A (UniProt P19438). The assay is described as above.
Assay [7] deals with p60ΔCD-HA KY19/20AA (UniProt P19438). The assay is described as above.
Assay [8] concerns the target p60ΔCD-HA L112E (UniProt P19438). Described as above.
For assay [9], the target named is p60ΔCD-HA N66F (UniProt P19438). The assay is described as above.
In assay [10] the target is p60ΔCD-HA Q24A (UniProt P19438). The assay is described as above.
The target in assay [11] is p60ΔCD-HA R77A (UniProt P19438). The assay is described as above.
In assay [12] the target is p60ΔCD-HA T61A (UniProt P19438). The assay is described as above.
For assay [13], the target named is p60ΔCD-HA W108T (UniProt P19438). The assay is described as above.
Assay [14] addresses p60 55-211 (UniProt P19438). The experiment in a line: flow cytometry of transfected cells; % MAB225 positive / % HA positive.
The target in assay [15] is p60ΔCD-HA (UniProt P19438). Described as above.
Assay [16] addresses p60ΔCD-HA DT49/50AA (UniProt P19438). The description is as above.
Assay [17] concerns the target p60ΔCD-HA E57A (UniProt P19438). The assay is described as above.
For assay [18], the target named is p60ΔCD-HA K19E (UniProt P19438). The assay is described as above.
In assay [19] the target is p60ΔCD-HA K32A (UniProt P19438). The assay is described as above.
In assay [20] the target is p60ΔCD-HA KY19/20AA (UniProt P19438). Described as above.
Assay [21] addresses p60ΔCD-HA L112E (UniProt P19438). The description is as above.
The target of assay [22] is p60ΔCD-HA N66F (UniProt P19438). The description is as above.
Assay [23] concerns the target p60ΔCD-HA Q24A (UniProt P19438). The description is as above.
Assay [24] concerns the target p60ΔCD-HA R77A (UniProt P19438). The assay is described as above.
The target of assay [25] is p60ΔCD-HA T61A (UniProt P19438). The assay is described as above.
Assay [26] deals with p60ΔCD-HA W108T (UniProt P19438). The description is as above.

For “Fas 1-210:CFP (from UniProt P25445 17-226) (receptor)”, in the assay with Fas 1-210:YFP (human), the FRET efficiency came to 16%.
For “p60 55-211 (from UniProt P19438 55-211) (receptor)”, the DOMINANT … (protection against TNF-induced death) with p60 TNFR (endogenous) is < 5 % protection.
On to “p60-specific monoclonal antibody clone 4.12 (Zymed)”, for which the clone 4.12 staining normalized to HA staining (ratio, p60ΔCD set at 1) with p60 55-211 [1] was found to be 0.02; with p60ΔCD-HA [2], 1; in the assay with p60ΔCD-HA DT49/50AA [3] it was 0.96; in the assay with p60ΔCD-HA E57A [4], 0.04; with p60ΔCD-HA K19E [5], 1.07; with p60ΔCD-HA K32A [6], 0.01. The clone 4.12 staining normalized to HA staining (ratio, p60ΔCD set at 1) came to 0.14 with p60ΔCD-HA KY19/20AA [7]; 1.27 with p60ΔCD-HA L112E [8]; 0.04 with p60ΔCD-HA N66F [9]; 0.97 in the assay with p60ΔCD-HA Q24A [10]; 0.99 with p60ΔCD-HA R77A [11]; 1.28 with p60ΔCD-HA T61A [12]. The clone 4.12 staining normalized to HA staining (ratio, p60ΔCD set at 1) with p60ΔCD-HA W108T [13] stood at 1.11.
As to “p60-specific monoclonal antibody clone MAB225 (R&D Systems)”, the MAB225 staining normalized to HA staining (ratio, p60ΔCD set at 1) with p60 55-211 [14] came out at 0.87; with p60ΔCD-HA [15] it was 1; with p60ΔCD-HA DT49/50AA [16], 1.16; with p60ΔCD-HA E57A [17] it was 1.68; with p60ΔCD-HA K19E [18], 1.05; with p60ΔCD-HA K32A [19], 0.36. The MAB225 staining normalized to HA staining (ratio, p60ΔCD set at 1) in the assay with p60ΔCD-HA KY19/20AA [20] stood at 0.59; with p60ΔCD-HA L112E [21], 1.31; in the assay with p60ΔCD-HA N66F [22], 0.67; with p60ΔCD-HA Q24A [23] it was 1.06; with p60ΔCD-HA R77A [24] it was 1.06; in the assay with p60ΔCD-HA T61A [25], 1.42. In addition, the MAB225 staining normalized to HA staining (ratio, p60ΔCD set at 1) with p60ΔCD-HA W108T [26] amounted to 1.32.
The substance “p60ΔCD-HA (from UniProt P19438 30-240) (receptor)” yielded a DOMINANT … (protection against TNF-induced death) (% of p60ΔCD wild type) with p60 TNFR (endogenous) of 50.
Same read-out and setting: the result for “p60ΔCD-HA DT49/50AA (from UniProt P19438 30-240) (receptor)” reads 50.
The substance “p60ΔCD-HA E57A (from UniProt P19438 30-240) (receptor)” registered a DOMINANT … (protection against TNF-induced death) (% of p60ΔCD wild type) in the assay with p60 TNFR (endogenous) of 50.
The same measure, in the same setting: the result for “p60ΔCD-HA K19E (from UniProt P19438 30-240) (receptor)” reads 50.
For the substance “p60ΔCD-HA K32A (from UniProt P19438 30-240) (receptor)”, the DOMINANT … (protection against TNF-induced death) in the assay with p60 TNFR (endogenous) is < 5 % protection.
On the same count and under the same terms, the result for “p60ΔCD-HA KY19/20AA (from UniProt P19438 30-240) (receptor)” reads < 5 % protection.
“p60ΔCD-HA L112E (from UniProt P19438 30-240) (receptor)”: the DOMINANT … (protection against TNF-induced death) (% of p60ΔCD wild type) in the assay with p60 TNFR (endogenous) turned out to be 50.
Take “p60ΔCD-HA N66F (from UniProt P19438 30-240) (receptor)”: in the assay with p60 TNFR (endogenous), the DOMINANT … (protection against TNF-induced death) (% of p60ΔCD wild type) was 50.
The same measure, in the same setting: to “p60ΔCD-HA Q24A (from UniProt P19438 30-240) (receptor)” belongs 50; to “p60ΔCD-HA R77A (from UniProt P19438 30-240) (receptor)”, 50.
Same read-out and setting: the result for “p60ΔCD-HA T61A (from UniProt P19438 30-240) (receptor)” reads 50; that for “p60ΔCD-HA W108T (from UniProt P19438 30-240) (receptor)”, 50.
